According to patent US20240116985A1, “STAPLED PEPTIDES AND METHODS THEREOF” (priority 2020, published 2024):
Starred links: 1 amine or outer side, 2 acyl side, 3 side chain; linkers in the order of their positions; H or OH if unused. Positions of bridges follow the written chain, without caps; N, C: chain ends. Non-standard residues stand in square brackets, D forms with d. Primed or numbered codes have the meaning given here. *: point of attachment. PyrS2″ = (S)-3-amino-1-((pent-4-en-1-yloxy)carbonyl)pyrrolidine-3-carboxylic acid (stapling residue), C=CCCCOC(=O)N1CC[C@@](N[*:1])(C(=O)[*:2])C1; B5(32) = 2-amino-2-(pent-4-en-1-yl)hept-6-enoic acid (bis-4-pentenylglycine, two alkene side chains), C=CCCCC(CCCC=C)(N[*:1])C(=O)[*:2]; B5(4) = 2,2-bis(4-pentenyl)glycine = 2-amino-2-(pent-4-en-1-yl)hept-6-enoic acid (stitching residue), C=CCCCC(CCCC=C)(N[*:1])C(=O)[*:2]; B5(5) = 2,2-bis(4-pentenyl)glycine, 2-amino-2-(pent-4-en-1-yl)hept-6-enoic acid (stitching residue), C=CCCCC(CCCC=C)(N[*:1])C(=O)[*:2]; TfeGA = (S)-2-amino-3-((carboxymethyl)(2,2,2-trifluoroethyl)amino)propanoic acid, O=C([C@H](CN(CC(=O)[*:3])CC(F)(F)F)N[*:1])[*:2]; PyrS2 = (S)-3-amino-1-((pent-4-en-1-yloxy)carbonyl)pyrrolidine-3-carboxylic acid, C=CCCCOC(=O)N1CC[C@@](N[*:1])(C(=O)[*:2])C1; B5(22) = 2-amino-2-(pent-4-en-1-yl)hept-6-enoic acid (two alkene side chains), C=CCCCC(CCCC=C)(N[*:1])C(=O)[*:2]; 3Br4FF = (S)-2-amino-3-(3-bromo-4-fluorophenyl)propanoic acid, O=C([C@H](Cc1ccc(F)c(Br)c1)N[*:1])[*:2]; B5(3) = 2,2-bis(4-pentenyl)glycine (stitching residue), C=CCCCC(CCCC=C)(N[*:1])C(=O)[*:2]; B5 = 2-amino-2-(pent-4-en-1-yl)hept-6-enoic acid, C=CCCCC(CCCC=C)(N[*:1])C(=O)[*:2]; Phe(3-COOH) = N[C@@H](Cc1cccc(C(=O)O)c1)C(=O)O; Phe(2-CF3) = N[C@@H](Cc1ccccc1C(F)(F)F)C(=O)O; Phe(3,4-Me2) = Cc1ccc(C[C@H](N)C(=O)O)cc1C; Phe(3-Br) = N[C@@H](Cc1cccc(Br)c1)C(=O)O; Phe(2-Cl) = N[C@@H](Cc1ccccc1Cl)C(=O)O; Bta = N[C@@H](Cc1csc2ccccc12)C(=O)O; αAllylPro = C=CC[C@@]1(C(=O)O)CCCN1; tBuAla = CC(C)(C)C[C@H](N)C(=O)O; 3Thi = N[C@@H](Cc1ccsc1)C(=O)O; BrAc = O=C(CBr)*

Columns and labels:
[1] = target: full-length beta-Catenin (Uniprot ID P35222) (Homo sapiens (Human)) (UniProt P35222); experiment: fluorescence polarization competition; full-length beta-catenin, 5FAM-TCF4(10-53) probe
Target sequence in this assay (P35222 2-781 limits assumed): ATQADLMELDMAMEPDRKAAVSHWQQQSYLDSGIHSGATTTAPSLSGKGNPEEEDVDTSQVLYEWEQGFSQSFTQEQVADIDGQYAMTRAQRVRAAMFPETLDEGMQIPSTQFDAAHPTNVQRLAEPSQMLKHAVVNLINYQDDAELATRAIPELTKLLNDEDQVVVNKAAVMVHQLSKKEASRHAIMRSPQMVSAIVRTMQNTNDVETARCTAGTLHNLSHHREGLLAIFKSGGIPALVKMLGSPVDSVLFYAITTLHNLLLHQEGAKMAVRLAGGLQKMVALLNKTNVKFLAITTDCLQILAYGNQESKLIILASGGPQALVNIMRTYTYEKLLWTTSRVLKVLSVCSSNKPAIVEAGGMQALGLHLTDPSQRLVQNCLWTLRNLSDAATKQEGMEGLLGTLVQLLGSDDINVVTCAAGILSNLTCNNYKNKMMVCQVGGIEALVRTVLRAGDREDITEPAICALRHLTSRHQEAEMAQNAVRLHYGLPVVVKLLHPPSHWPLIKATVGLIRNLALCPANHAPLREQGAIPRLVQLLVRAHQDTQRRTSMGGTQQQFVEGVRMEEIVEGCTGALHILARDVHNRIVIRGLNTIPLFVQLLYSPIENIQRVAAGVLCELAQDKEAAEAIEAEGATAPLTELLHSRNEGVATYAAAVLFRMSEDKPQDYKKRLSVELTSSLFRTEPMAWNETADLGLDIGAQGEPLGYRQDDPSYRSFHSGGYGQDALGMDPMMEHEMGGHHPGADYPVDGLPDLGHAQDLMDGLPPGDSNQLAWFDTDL

[2] = target: full-length beta-Catenin (Uniprot ID P35222) (Homo sapiens (Human)) (UniProt P35222); experiment: fluorescence polarization competition; full-length beta-catenin, competitor probe 5FAM-TCF4(10-53)
Target sequence in this assay (P35222 whole entry): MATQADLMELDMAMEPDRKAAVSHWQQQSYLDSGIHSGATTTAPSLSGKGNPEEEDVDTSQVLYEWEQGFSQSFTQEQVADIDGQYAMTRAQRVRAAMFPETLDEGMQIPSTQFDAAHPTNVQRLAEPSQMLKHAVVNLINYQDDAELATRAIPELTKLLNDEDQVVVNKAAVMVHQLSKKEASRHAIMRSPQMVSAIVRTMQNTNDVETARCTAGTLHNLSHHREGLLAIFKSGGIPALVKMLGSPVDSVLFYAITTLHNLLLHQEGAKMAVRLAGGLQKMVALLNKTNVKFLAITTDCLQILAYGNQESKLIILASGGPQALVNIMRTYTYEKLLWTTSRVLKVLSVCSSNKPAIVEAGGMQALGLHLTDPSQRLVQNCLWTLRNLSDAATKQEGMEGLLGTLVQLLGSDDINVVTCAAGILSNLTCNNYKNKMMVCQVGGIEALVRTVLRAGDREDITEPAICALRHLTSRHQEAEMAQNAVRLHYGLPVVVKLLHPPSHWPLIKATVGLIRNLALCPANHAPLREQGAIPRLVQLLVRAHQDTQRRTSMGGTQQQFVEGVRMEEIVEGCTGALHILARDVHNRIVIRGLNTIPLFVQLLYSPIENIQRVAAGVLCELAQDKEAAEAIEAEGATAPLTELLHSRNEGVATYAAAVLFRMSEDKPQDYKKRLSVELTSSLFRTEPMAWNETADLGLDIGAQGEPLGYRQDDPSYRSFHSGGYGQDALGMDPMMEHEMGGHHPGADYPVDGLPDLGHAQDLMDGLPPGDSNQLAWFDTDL

[3] = target: full-length beta-Catenin (Uniprot ID P35222) (Homo sapiens (Human)) (UniProt P35222); experiment: fluorescence polarization competition; 10 nM full-length beta-catenin + 10 nM 5FAM-TCF4(10-53) probe
Target sequence in this assay (P35222 whole entry): as above

| Binder | IC50 [1] | IC50 [2] | EC50 [3] |
| --- | --- | --- | --- |
| Ac-[αAllylPro]D[tBuAla][B5]NTAAFT[PyrS2][3Thi][Bta]F-NH2 (staple 1-4, 4-11; also: earlier eluting HPLC isomer) [I-2144] | 2020 nM |  |  |
| BrAc-[αAllylPro]D[tBuAla][B5(4)]D[Phe(3-COOH)]AAFL[PyrS2][Phe(2-Cl)][Bta]A-NH2 (staple 1-4, 4-11) [I-2286] |  | 88 nM |  |
| Ac-[αAllylPro]D[tBuAla][B5(22)]D[TfeGA]AAFN[PyrS2][3Thi][Bta]S-NH2 (staple 1-4, 4-11; also: staple isomer composition, later-eluting HPLC peak) [I-941] | 2110 nM |  | 2110 nM |
| Ac-[αAllylPro]D[tBuAla][B5]TTAAFN[PyrS2][3Thi][Bta]Q-NH2 (staple 1-4, 4-11; also: earlier eluting HPLC isomer) [I-2148] | 10000 nM |  |  |
| Ac-[αAllylPro]D[tBuAla][B5(4)]D[Phe(3-COOH)]AAFL[PyrS2][3Thi][Phe(3,4-Me2)]Q-NH2 (staple 1-4, 4-11) [I-2291] |  | 5 nM |  |
| Ac-[αAllylPro]D[tBuAla][B5]D[Phe(3-COOH)]AAFL[PyrS2][Phe(3-Br)][Phe(2-CF3)]Q-NH2 (staple 1-4, 4-11) [I-2155] | 10000 nM |  |  |
| Ac-[αAllylPro]D[tBuAla][B5(4)]D[Phe(3-COOH)]AAFL[PyrS2][Phe(2-CF3)][3Br4FF]S-NH2 (staple 1-4, 4-11) [I-2289] |  | 8 nM |  |
| BrAc-[αAllylPro]D[tBuAla][B5(32)]DDAAFQ[PyrS2][3Thi][Bta]H-NH2 (staple 1-4, 4-11) [I-2285] |  | 94 nM |  |
| Ac-[αAllylPro]D[tBuAla][B5]TTAAFN[PyrS2][3Thi][Bta]Q-NH2 (staple 1-4, 4-11; also: later eluting HPLC isomer) [I-2149] | 7180 nM |  |  |
| Ac-[αAllylPro]D[tBuAla][B5(4)]D[Phe(3-COOH)]AAFL[PyrS2][Phe(2-CF3)][Phe(3,4-Me2)]S-NH2 (staple 1-4, 4-11) [I-2293] |  | 15 nM |  |
| Ac-[αAllylPro]D[tBuAla][B5(4)]D[Phe(3-COOH)]QAFL[PyrS2][Phe(2-CF3)][3Br4FF]A-NH2 (staple 1-4, 4-11) [I-2290] |  | 14 nM |  |
| Ac-[αAllylPro]D[tBuAla][B5(5)]D[TfeGA]AAFN[PyrS2″][3Thi][Bta]T-NH2 (staple 1-4, 4-11; also: staple isomer composition, later-eluting HPLC peak) [I-943] | 1990 nM |  | 1990 nM |
| Ac-[αAllylPro]D[tBuAla][B5]NTAAFT[PyrS2][3Thi][Bta]F-NH2 (staple 1-4, 4-11; also: later eluting HPLC isomer) [I-2145] | 2070 nM |  |  |
| Ac-[αAllylPro]D[tBuAla][B5(22)]D[TfeGA]AAFN[PyrS2][3Thi][Bta]S-NH2 (staple 1-4, 4-11; also: staple isomer composition, earlier-eluting HPLC peak) [I-940] | 1740 nM |  | 1740 nM |
| Ac-[αAllylPro]D[tBuAla][B5(4)]D[Phe(3-COOH)]AAFL[PyrS2][3Thi][3Br4FF]Q-NH2 (staple 1-4, 4-11) [I-2287] |  | 7 nM |  |

Continued by falling IC50 [1], values first:

| IC50 [1] | IC50 [2] | EC50 [3] | Binder |
| --- | --- | --- | --- |
| 1480 nM |  |  | Ac-[αAllylPro]D[tBuAla][B5]D[Phe(3-COOH)]AAFL[PyrS2][Phe(3-Br)]FQ-NH2 (staple 1-4, 4-11) [I-2153] |
| 1280 nM |  | 1280 nM | Ac-[αAllylPro]D[tBuAla][B5(22)]D[TfeGA]AAFN[PyrS2][3Thi][Bta]T-NH2 (staple 1-4, 4-11; also: staple isomer composition, earlier-eluting HPLC peak) [I-942] |
| 1080 nM |  | 1080 nM | Ac-[αAllylPro]D[tBuAla][B5(5)]D[TfeGA]AAFN[PyrS2″][3Thi][Bta]A-NH2 (staple 1-4, 4-11; also: staple isomer composition, later-eluting HPLC peak) [I-945] |
| 1010 nM |  |  | Ac-[αAllylPro]D[tBuAla][B5(3)]NTAAFN[PyrS2″][3Thi][Bta]W-NH2 (staple 1-4, 4-11; also: earlier eluting HPLC isomer) [I-2138] |
| 970 nM |  |  | Ac-[αAllylPro]D[tBuAla][B5]NTAAFN[PyrS2][3Thi][Bta]W-NH2 (staple 1-4, 4-11; also: later eluting HPLC isomer) [I-2139] |
| 761 nM |  | 761 nM | Ac-[αAllylPro]D[tBuAla][B5(5)]D[TfeGA]AAFN[PyrS2″][3Thi][Bta]A-NH2 (staple 1-4, 4-11; also: staple isomer composition, earlier-eluting HPLC peak) [I-944] |
| 390 nM |  |  | Ac-[αAllylPro]D[tBuAla][B5]NTAAFH[PyrS2][3Thi][Bta]Q-NH2 (staple 1-4, 4-11; also: later eluting HPLC isomer) [I-2147] |
| 310 nM |  |  | Ac-[αAllylPro]D[tBuAla][B5]NTAAFN[PyrS2][3Thi][Bta]H-NH2 (staple 1-4, 4-11; also: later eluting HPLC isomer) [I-2141] |
| 248 nM |  |  | Ac-[αAllylPro]D[tBuAla][B5]NTAAFH[PyrS2][3Thi][Bta]Q-NH2 (staple 1-4, 4-11; also: earlier eluting HPLC isomer) [I-2146] |
| 233 nM |  |  | Ac-[αAllylPro]D[tBuAla][B5]NTAAFN[PyrS2][3Thi][Bta]H-NH2 (staple 1-4, 4-11; also: earlier eluting HPLC isomer) [I-2140] |
| 217 nM |  |  | Ac-[αAllylPro]D[tBuAla][B5]NTAAFN[PyrS2][3Thi][Bta]A-NH2 (staple 1-4, 4-11; also: later eluting HPLC isomer) [I-2143] |
